Consider 20 molecules from patent publication US6525022B1, “Receptor specific atrial natriuretic peptides” (Genentech, Inc., priority 1993, dated 2003).

For data set [1], the target named is human neutral endopeptidase 24.11 (human) (UniProt P08473). The experiment in a line: cell-based or functional assay.
In data set [2] the target is T1, hNPR-A (Homo sapiens, UniProt P16066).
T1 sequence (P16066 33-1061): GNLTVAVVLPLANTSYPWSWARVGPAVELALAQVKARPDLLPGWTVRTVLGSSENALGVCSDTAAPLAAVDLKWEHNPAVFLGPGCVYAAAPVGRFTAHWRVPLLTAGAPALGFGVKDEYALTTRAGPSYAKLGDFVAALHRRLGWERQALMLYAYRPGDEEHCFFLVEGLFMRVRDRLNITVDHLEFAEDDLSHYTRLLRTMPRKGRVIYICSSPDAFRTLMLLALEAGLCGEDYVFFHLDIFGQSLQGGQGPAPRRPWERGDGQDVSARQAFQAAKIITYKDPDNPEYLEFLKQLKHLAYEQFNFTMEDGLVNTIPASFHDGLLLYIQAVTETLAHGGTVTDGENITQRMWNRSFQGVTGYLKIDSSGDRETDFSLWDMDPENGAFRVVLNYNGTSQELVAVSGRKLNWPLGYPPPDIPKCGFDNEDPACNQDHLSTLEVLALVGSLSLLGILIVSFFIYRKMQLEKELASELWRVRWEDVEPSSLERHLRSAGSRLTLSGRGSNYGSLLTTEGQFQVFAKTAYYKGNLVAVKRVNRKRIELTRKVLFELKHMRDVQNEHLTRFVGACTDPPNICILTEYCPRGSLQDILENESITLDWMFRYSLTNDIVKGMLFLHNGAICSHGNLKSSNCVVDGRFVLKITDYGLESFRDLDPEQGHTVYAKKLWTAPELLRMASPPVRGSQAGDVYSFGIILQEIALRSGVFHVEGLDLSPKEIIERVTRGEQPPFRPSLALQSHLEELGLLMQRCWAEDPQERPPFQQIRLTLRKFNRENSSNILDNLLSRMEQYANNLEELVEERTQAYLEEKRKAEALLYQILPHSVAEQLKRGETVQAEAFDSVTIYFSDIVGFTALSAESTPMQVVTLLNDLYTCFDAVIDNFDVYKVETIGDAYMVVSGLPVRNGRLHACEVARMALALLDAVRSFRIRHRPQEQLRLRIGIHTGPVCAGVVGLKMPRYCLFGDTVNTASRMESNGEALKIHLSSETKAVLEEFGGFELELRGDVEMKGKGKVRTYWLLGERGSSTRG
The experiment in a line: Competition binding to hNPR-A (Table I, FIG. 5).

Data set [3] deals with T2, hNPR-C (Homo sapiens, UniProt P17342).
T2 sequence (P17342 27-541): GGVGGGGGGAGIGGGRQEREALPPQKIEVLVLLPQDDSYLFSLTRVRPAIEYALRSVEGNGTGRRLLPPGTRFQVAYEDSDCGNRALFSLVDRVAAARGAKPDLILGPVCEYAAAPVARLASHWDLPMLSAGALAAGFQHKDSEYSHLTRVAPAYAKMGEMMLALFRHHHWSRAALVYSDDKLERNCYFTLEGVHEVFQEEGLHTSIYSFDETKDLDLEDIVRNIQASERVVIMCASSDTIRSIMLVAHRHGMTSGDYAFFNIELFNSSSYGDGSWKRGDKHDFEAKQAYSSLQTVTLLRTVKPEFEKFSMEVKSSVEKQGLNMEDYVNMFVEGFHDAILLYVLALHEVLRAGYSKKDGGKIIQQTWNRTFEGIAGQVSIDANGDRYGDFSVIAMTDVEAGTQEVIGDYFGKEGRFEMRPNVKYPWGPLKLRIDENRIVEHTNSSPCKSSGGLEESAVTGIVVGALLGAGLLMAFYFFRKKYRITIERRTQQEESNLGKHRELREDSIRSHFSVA
The experiment in a line: Competition binding to hNPR-C (Table I, FIG. 5).

The target of data set [4] is human NEP (hNEP), endopeptidase 24.11 (Homo sapiens, UniProt P08473). The experiment in a line: Degradation of ANF variants by human NEP, half-life by HPLC. Conditions: isolated human NEP (endopeptidase 24.11) in HEPES buffer, Half-Life (min.), FIG. 7: ANF variants 32 nM/ml, NEP 0.45 μg/ml.
Description: The half-life of various ANF variants was measured according to the following procedure.
ANF Solution: An accurately weighed amount of ANF or variant thereof was diluted with HEPES buffer (5 ml of 1 M HEPES Buffer and 0.1 ml of Tween 20 diluted to a 100 ml volume with DI water) to make a 0.5 mg/ml solution.
hNEP/HEPES Solution: 7.5 μl of a 1 mg/ml solution of hNEP (see U.S. Pat. No. 4,960,700) is dissolved in 992.5 μl of HEPES buffer (as described above) and vortex mixed. The resulting mixture is stored in a silylated Eppendorf tube and periodically checked for activity against an ANF peptide standard.
Assay conditions: 150 μl of an ANF solution in the HEPES buffer is diluted with 820 μl HEPES buffer and vortex mixed (1 sec). Careful note of the time is taken as 30 μl of the hNEP/HEPES solution is added and the solution is vortex mixed for 1 sec. and analyzed by periodic removal of constant volume aliquots by the HPLC autosampler. A 2.5 cm×50 cm, C-18 reversed-phase column (15 micron, 300 Å]) was used and elution was achieved by using a shallow gradient of increasing acetonitrile. The elution conditions consisted of a 10% to 50% acetonitrile (containing 0.1% TFA) gradient at 0.5% min.^−1. The aqueous phase was 0.1% TFA in water. The peak area of the ANP peptide is recorded at these periodic intervals and a half-life is determined from these values.
The target of data set [5] is T3, human neutral endopeptidase 24.11 (human), P08473.
T3 chain: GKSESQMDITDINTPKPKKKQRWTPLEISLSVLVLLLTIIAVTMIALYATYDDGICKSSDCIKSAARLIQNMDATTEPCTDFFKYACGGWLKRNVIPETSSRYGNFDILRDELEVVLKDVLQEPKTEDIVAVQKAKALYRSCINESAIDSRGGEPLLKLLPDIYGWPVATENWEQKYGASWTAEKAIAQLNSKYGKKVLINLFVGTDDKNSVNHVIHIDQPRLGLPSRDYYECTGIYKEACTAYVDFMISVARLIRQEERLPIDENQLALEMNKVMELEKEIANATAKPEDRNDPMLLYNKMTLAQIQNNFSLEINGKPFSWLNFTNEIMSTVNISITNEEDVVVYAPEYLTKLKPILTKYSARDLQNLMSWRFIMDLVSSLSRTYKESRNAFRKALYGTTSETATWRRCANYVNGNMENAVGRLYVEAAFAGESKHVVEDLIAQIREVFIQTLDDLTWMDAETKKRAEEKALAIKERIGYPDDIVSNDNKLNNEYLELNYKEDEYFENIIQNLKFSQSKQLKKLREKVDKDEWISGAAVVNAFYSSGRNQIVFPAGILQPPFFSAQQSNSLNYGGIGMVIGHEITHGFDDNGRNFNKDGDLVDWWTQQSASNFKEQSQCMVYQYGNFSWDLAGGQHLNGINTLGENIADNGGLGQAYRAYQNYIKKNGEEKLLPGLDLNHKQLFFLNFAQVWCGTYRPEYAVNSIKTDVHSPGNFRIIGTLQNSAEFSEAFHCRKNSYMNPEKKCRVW
The experiment in a line: cell-based or functional assay.

Data set [6] deals with T4, human natriuretic peptide clearance receptor-C (human), P17342.
T4 chain: T2 sequence (P17342 27-541)
The experiment in a line: competition binding, Table I; tracer and receptor format not given.

In data set [7] the target is T5, human natriuretic peptide receptor-A (human, UniProt P16066 33-1061).
T5 construct: whole, on cells; also called hNPR-A; human NPR-A
T5 sequence (looked up): T1 sequence (P16066 33-1061)
The description is as above.

The target of data set [8] is T6, human natriuretic peptide clearance receptor-C (human, UniProt P17342 27-541).
T6 construct: whole, on cells; also called hNPR-C; human NPR-C
T6 sequence (looked up): T2 sequence (P17342 27-541)
The data set is described as above.

The target of data set [9] is T4, human natriuretic peptide clearance …. The experiment in a line: competition binding, membranes. Conditions: chains peptide; modification not given.
Data set [10] concerns the target T7, human natriuretic peptide receptor-A (human), P16066.
T7 chain: T1 sequence (P16066 33-1061)
The experiment in a line: competition binding vs 125I-rat ANP, membranes. The settings on record: chains peptide; modification not given.

Data set [11] has as its target T8, human neutral endopeptidase 24.11 (human, UniProt P08473 2-750, limits assumed). The experiment in a line: cell-based or functional assay.
Data set [12] addresses T8, human neutral endopeptidase 24.11. The experiment in a line: cell-based or functional assay. The source holds these as a separate data set.

Where two headings read alike, the source gives them in different places. Where a SMILES comes first, the peptide text is derived from it. Bridges are numbered along the chain shown (N, C = ends). Primed or numbered codes have the meaning given here. Where no end group is shown, it is not given here. [ ]: non-standard residue; d: D form. Phg′ = phenylglycine, D or L; Mpa = O=C(O)CCS

Sequence of human NEP (hNEP), endopeptidase 24.11 (P08473 whole entry): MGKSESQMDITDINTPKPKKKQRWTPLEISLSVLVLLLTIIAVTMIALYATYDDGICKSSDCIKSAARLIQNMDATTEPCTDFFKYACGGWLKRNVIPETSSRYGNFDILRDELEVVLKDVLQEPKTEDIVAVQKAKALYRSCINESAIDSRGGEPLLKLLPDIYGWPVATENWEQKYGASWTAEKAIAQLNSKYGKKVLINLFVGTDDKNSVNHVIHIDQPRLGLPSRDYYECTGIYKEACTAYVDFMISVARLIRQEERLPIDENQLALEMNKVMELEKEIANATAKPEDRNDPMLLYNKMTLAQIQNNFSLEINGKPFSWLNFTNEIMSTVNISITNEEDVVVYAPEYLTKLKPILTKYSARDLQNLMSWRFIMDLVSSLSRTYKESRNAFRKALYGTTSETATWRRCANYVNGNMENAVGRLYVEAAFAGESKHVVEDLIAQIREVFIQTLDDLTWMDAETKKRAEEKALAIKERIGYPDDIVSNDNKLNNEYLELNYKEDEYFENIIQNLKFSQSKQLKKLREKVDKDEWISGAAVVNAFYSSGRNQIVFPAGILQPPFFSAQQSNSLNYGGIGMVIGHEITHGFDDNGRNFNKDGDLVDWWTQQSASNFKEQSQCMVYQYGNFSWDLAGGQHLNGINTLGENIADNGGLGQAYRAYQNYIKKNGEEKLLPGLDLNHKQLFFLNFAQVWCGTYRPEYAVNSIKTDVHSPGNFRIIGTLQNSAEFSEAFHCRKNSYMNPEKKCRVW

In the case of ANF 40 (peptide), the Half-Life in data set [1] was found to be 9.95 h.

For the molecule `CC[C@H](C)[C@@H]1NC(=O)[C@H](CCCNC(=N)N)NC(=O)[C@H](CC(=O)O)NC(=O)[C@H](CCSC)NC(=O)[C@H](CO)NC(=O)[C@H](CCCCN)NC(=O)CNC(=O)[C@H](Cc2ccccc2)NC(=O)[C@@H](NC(=O)[C@H](CO)NC(=O)[C@H](CO)NC(=O)[C@H](CCCNC(=N)N)NC(=O)[C@H](CCCNC(=N)N)NC(=O)[C@H](CC(C)C)NC(=O)[C@@H](N)CO)CSSC[C@@H](C(=O)N[C@@H](CC(N)=O)C(=O)N[C@@H](CO)C(=O)N[C@@H](Cc2ccccc2)C(=O)N[C@@H](CCCNC(=N)N)C(=O)N[C@@H](Cc2ccc(O)cc2)C(=O)O)NC(=O)CNC(=O)[C@H](CC(C)C)NC(=O)CNC(=O)[C@H](CO)NC(=O)[C@H](CCC(N)=O)NC(=O)[C@H](C)NC(=O)CNC1=O` [ANF 60] (H-SLRRSSCFGKSMDRIGAQSGLGCNSFRY-OH; disulfide 7-23; C-terminus assumed), the IC50 in data set [2] (read-out: Binding Affinity IC50(pM) hNPR-A) came to 112 pM; in [3] (read-out: Binding Affinity IC50(pM) hNPR-C) it was 5980 pM. Further, the half-life at 32 nM/ml in data set [4] is 5.07 h. Take “hANF(1-28) G16R (SLRRSSCFGGRMDRIRAQSGLGCNSFRY) [hANF with the single substitution of arginine for glycine at position 16]”: the “Effect of substitution on NPR-A binding” value in [2] (relative to wild type) is reported as “negligible effect”. Further, the “Reduction of NPR-C affinity” value in [3] (relative to wild type) is “about 150 fold”. Consider ANF 28 (peptide), for which the Half-Life in data set [1] turned out to be 9.52 h. In turn, SLRRSSCFTGSIDRIRAQSGLGCNSFRY (modifications not checked) [ANF 27] came in with a Half-Life in [5] of 5.57 h. This molecule registered an IC50 in data set [6] of 1000 nM. In the case of SLRRSSC[Phg′]TGSIDRIRAQSGLGCNSFRY (disulfide 7-23; also: Phg configuration D or L not given here) [ANF 100-1], the values for the IC50 in [7] and in data set [8] were 0.187 nM and 3230 nM, respectively.

B1: ANF 90 (peptide)
peptide: SLRRSSCF[dA]GDIDRIRAQSGLGCNSFRY
modifications: disulfide 7-23
notes: Cys7-Cys23 disulfide; also called hANF(1-28) G9(d-Ala), R11D, M12I, G16R
In the case of B1, the IC50 in data set [7] stood at 1.2 nM; in data set [8], 6140 nM. Regarding SLRRSSCFGGRIDRIREASGLGCNSFRY [ANF 99], the IC50 in [9] was determined as 121 nM; in data set [10] it was 0.145 nM. [Mpa]F[dA]GDIDRIRAQSGLGCNSFRY (ends and bridges not checked) [ANF 92]: the “Half-Life” value in [11] came to 1.77 h. For the molecule SLRRSSCFGGRIDRIGAQSGLGCNSFRY [rat ANP], in [5], the Half-Life worked out at 2.75 h. Also, the figures for the IC50 in data set [9] and in data set [10] were 0.145 nM and 0.181 nM, respectively. For the molecule SLRRSSC[dA]FTGSIDRIRAQSGLGCNSFRY (disulfide 7-24) [ANF 75], the IC50 in [7] is 2.08 nM; in [8] it was 2000 nM. In data set [6], SLRRSSCFAGSIDRIRAQSGLGCNSFRY (modifications not checked) [ANF 78] registered an IC50 of 8.64 nM.

B2: ANF 81 (peptide)
peptide: [Mpa]F[dA]GSIDRIRAQSGLGCNSFRY
modifications: disulfide 1-17; not fully specified; printed as Mpa-Phe-(D-Ala)-Gly-Ser-Ile-Asp-Arg-Ile-Arg-Ala-Gln-Ser-Gly-Leu-Gly-Cys-Asn-Ser-Phe-Arg-Tyr
With B2, the IC50 worked out at 1.4 nM in data set [7] and 3860 nM in [8].

B3: ANF 24 (peptide)
peptide: SLRRSSCFGGRIDRIRAQSGLGCNSFRY
modifications: disulfide 7-23
notes: Synthetic; Cys7-Cys23 disulfide; also called hANF(1-28) M12I, G16R
Turning to B3, the “Half-Life” value in data set [12] is 10 h. In data set [8], this molecule returned an IC50 of 5.64 nM.

B4: ANF 50 (peptide)
peptide: SLRRSSCFTGSMDRIGAQSGLGCNSFRY
modifications: disulfide 7-23
notes: Cys7-Cys23 disulfide; also called hANF(1-28) G9T, R11S
Turning to B4, the “Half-Life” value in [12] was 1.55 h. The IC50 in [7] turned out to be 0.57 nM; in data set [8] it was 251 nM. SLRRSSCFGGRIDSIRAQSGLGCNSFRY (disulfide 7-23, also called hANF(1-28) M12I, R14S, G16R) [ANF 25]: in [11], the “Half-Life” value worked out at 3.32 h. The IC50 in [7] amounted to 0.056 nM; in data set [8], 3.31 nM.

As to SLRRSSCFGGRMDRIGAQSGLGCNSFRY (modifications not checked) [hANF(1-28), wild-type human atrial natriuretic factor], in data set [5], the Half-Life was determined as 2.27 h.

For the molecule [Mpa]F[dT]GSIDRIRAQSGLGCNSFRY (disulfide 1-17) [ANF 80], the IC50 in [7] stood at 0.423 nM; in data set [8], 739 nM. For the molecule TAPRSLRRSSCFGGRIDRIRAQSGLGCNSFRY (disulfide 11-27) [ANF 23], the “Half-Life” value in data set [12] was found to be 12.3 h. As for TAPRSLRRSSCFGGRMDRIGAQSGLGCNSFRY [urodilatin], the figures for the “Half-Life” value in data set [12] and in data set [11] were 31 h and 27.1 h, respectively.
